{
  "source": "the nanobody polyreactivity screen of Harvey et al. (2022)",
  "data": [
    {"experiment": "yeast display, Sf9 membrane polyspecificity reagent, FACS + sequencing; frameworks hold sequencing errors", "procedure,_shortened": "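After 36–48 hours of galactose induction, yeast (Saccharomyces cerevisiae BJ5465) displaying a synthetic nanobody library were stained at 4 °C for 1 hour with 10% biotinylated, detergent-solubilized Sf9 membrane reagent. Streptavidin microbeads enriched the stained cells before FACS sorting into low and high (top ~1%) gates on anti-HA and streptavidin fluorescence. Each clone's polyreactivity label reflects its gate of origin.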", "values": [
      {"sequence": "QVQLVESGGGIVQAGGSLRLSCAASGRTLSKNAMGWYRQAPGKERELVATISSVGRTNYADSVKGRFTISRDNAKNTVYLQMNSLKPEDTAVYNCAARRFRGSYYWGQGTQVTVSS", "polyreactivity (PSR sort gate)": "high polyreactivity"},
      {"sequence": "QVQLVESGGGIVQAGGSLRLSCAASGSIFDKNAMGWYRQAPGKERELVAAIDSGDTYYADSVKGRFTISRDNAKNTVYLQMNSLKPEDTAVYYCAADDVQYEYDYWGQGPQVTVSS", "polyreactivity (PSR sort gate)": "low polyreactivity"},
      {"sequence": "QVQLVESGGGIVQAGGSLRLSCAASGSIFGGNALGWDRQAPGKERELVAAITWSGTSTYYADSVKGRFTISRDNAKNTVYLQMNSLKPEDTAVYYCNADYKSTDFRYSGSRNYWGQGTQVTVSS", "polyreactivity (PSR sort gate)": "low polyreactivity"},
      {"sequence": "QVQLVESGGGIVQAGGSLRLSCAASGSIFIDYAMGWYRQAPGKERELVAAISWRGGSTYYADSVKGRFTISRDNAKNTVFLQMIRLKPEDTAVYYCAGARRSKRHEYYLGQGTQVTVSS", "polyreactivity (PSR sort gate)": "high polyreactivity"},
      {"sequence": "QVQLVESGGGIVQAGGSLRLSCAASGSIFKRYAMGWYRQAPGKERELVAAISWSGGNTYYADSVKGRFTISRDNAKYTVYLQMNILKPEDTAVYYCNAGYSYFGPGRGRFRYYYWGQGTQVTVSS", "polyreactivity (PSR sort gate)": "high polyreactivity"},
      {"sequence": "QVQLVESGGGIVQAGGSLRLSCAASGSIFRRNAMGWYRQSPGKEMEMVASISRGGSTYYADSVKGRFTISRDNAKNTVYLQMNSLKPEDTSVYYCNVVPRWLSWVPTTRRIGDDDYWGQGTQVTVSS", "polyreactivity (PSR sort gate)": "high polyreactivity"},
      {"sequence": "QVQLVESGGGIVQAGGSLRLSCAASGSILGYYVMGWYRQAPGIESELVAAISWSSGSTYYADSVKGRFTISRDNAKNTVYLQMNSLIPEDTAVYFCAAPIGDVYVGKGYDSWGQGTQVTVSS", "polyreactivity (PSR sort gate)": "low polyreactivity"},
      {"sequence": "QVQLVESGGGIVQAGGSLRLSCAASGSILSTYAMGWYRQAPGKERELVDSISSNAGSTYYSDSVKGRFTISRDNAKNTVYLQMNSLKPEDSAVYYCNKVYGGGTYDYWGQGTQVTVSS", "polyreactivity (PSR sort gate)": "low polyreactivity"},
      {"sequence": "QVQLVESGGGIVQAGGSLRLSCAASGSIVGQYAMGWYRQPPGKERELVAAITSGGRTNYADSVTGRFTISRDNAKNTVYVQMNRLKPEDTAVYYCAARGWVWYYWGQGTQVTVSS", "polyreactivity (PSR sort gate)": "high polyreactivity"},
      {"sequence": "QVQLVESGGGIVQAGGSLRLSCAASGSTFGSYAMGWYRQAPGKVRELVAAIYRAGSTYADSVKGRFTISRDNAKYTVYFQMNSLKPEDTAVYYCAKRDNALYYGYDYWRQGTQVTVSS", "polyreactivity (PSR sort gate)": "low polyreactivity"},
      {"sequence": "QVQLVESGGGIVQAGGSLRLSCAASGSTFILNAMGWYRQAPGKERALVATISSSDTSTYYADSVKGRFTISRDNAKNTVYLQMNSLKPEDTAVYYCNADDYTTSYLQRVYHYGVEYYYWGQGTQVTVSS", "polyreactivity (PSR sort gate)": "low polyreactivity"},
      {"sequence": "QVQLVESGGGIVQAGGSLRLSCAASGSTFRAYVMGWSRPAPGKERELVAAITYRGTSTYYADSVKGRFTISRDNAKYTVYLQMNSLKPEDTAVYYCAARRLYTRGTYDYWGLGTQVTVSS", "polyreactivity (PSR sort gate)": "high polyreactivity"},
      {"sequence": "QVQLVESGGGIVQAGGSLRLSCAASGSTFVDNAMGWYRQAPGKERELVAAITTSVGSTYYADSVKGRFTISRDNAKNTVYLQMNSLKPEDTAVYYCAATVFSTYPYGYGSTFVRDDYWGQGTQVTVSS", "polyreactivity (PSR sort gate)": "low polyreactivity"},
      {"sequence": "QVQLVESGGGIVQAGGSLRLSCAASGSTFVTNVMGWYRQAPGKERELVAAISYSGGNTYYEDSVKGRFTISRDNANNTVYLHMNSLKPEDTAVYYCNAYRVVHPCEYDYWGQGTQVTVSS", "polyreactivity (PSR sort gate)": "high polyreactivity"},
      {"sequence": "QVQLVESGGGIVQAGGSLRLSCAASGSTFWIYAMGWYRQAPGKERELVAAISWRGGRTYYADSVKGRFTISRDNAKNTVYLQMNSLKPQDTAVYYCNAQKRDGSMGYWGQGTQVTVSS", "polyreactivity (PSR sort gate)": "high polyreactivity"},
      {"sequence": "QVQLVESGGGIVQAGGSLRLSCAASGSTIDKNAMGWYRQAPGKERELVAAINNGGGTTYYADSVKGRFTISRDNAKNTVFLQMNSLKPEDTAVYYCAAVGKAYWSDYQYRYYYWGQGTQVTVSS", "polyreactivity (PSR sort gate)": "low polyreactivity"},
      {"sequence": "QVQLVESGGGIVQAGGSLRLSCAASGSTLEPNAMGWYRQAPGKERELVAAITIGGSTYYADSVKGRFTISRDNAKYTVYLQMNSLKPEDTAVYYCAAKSTVQRRRHTNYDYWGQGTQVTVSS", "polyreactivity (PSR sort gate)": "high polyreactivity"},
      {"sequence": "QVQLVESGGGIVQAGGSLRLSCAASGSTLHSYALGWYRQAPGKERELVAAISFRGGSTYADSVKGRFTISRDNAKNTVYVQMNSLKPEDTAVYYCATRRTRADWYIVGYDYWGQGTQVTVSS", "polyreactivity (PSR sort gate)": "low polyreactivity"},
      {"sequence": "QVQLVESGGGIVQAGGSLRLSCAASGSTLTIYAMGWYRQAPGKERELVAAISRSGGRTYYADSVKGRFTISRDNAKNTVYLQMNSLKPEDTAVYYCATQPVRDRPGGSRKKYYYWGLGTQVTVSS", "polyreactivity (PSR sort gate)": "high polyreactivity"},
      {"sequence": "QVQLVESGGGIVQAGGSLRLSCAASGYTFAKYAMGWYRQEPGKERELVAAISSSGGRTYYADSVKGRFTISRDIAKNTVYLQMNSLKPEDTAVYYCNAYGQRDYWGQGSQVTVSS", "polyreactivity (PSR sort gate)": "high polyreactivity"},
      {"sequence": "QVQLVESGGGIVQAGGSLRLSCAPSGFIFRVYTMGWYRQAPGKERELVAAISYRGGRTYYADSVKGRFTISRDNAKNSVYLQMNILKPEDTAVYYCAAERVNREFDYWGQGTLVTVSS", "polyreactivity (PSR sort gate)": "high polyreactivity"},
      {"sequence": "QVQLVESGGGIVQAGGSLRLSCDASGRIFTGNVMGWYRQAPGKERELVAAISRRGGGTYYADSVKGRFTISRDNAKNTVYLQMNSLIPEDTALYYCDAQYRSQGQPKGCVLYYYWVQGTQVTVSS", "polyreactivity (PSR sort gate)": "high polyreactivity"},
      {"sequence": "QVQLVESGGGIVQAGGSLRLSFAASGSIFEGNALGWYRQEPGKEMEFVAAITKRGGSTYYADSVKGRFTISRDNAKNTVYLQMIWLKPEDTAGYYCAADRSYPRAGRYNYWGQGTQVTVSS", "polyreactivity (PSR sort gate)": "low polyreactivity"},
      {"sequence": "QVQLVESGGGIVQAGGSLRLSSAASGITFGANAMGWYRQAPGKERELVADITWSGGDTYYADSVKGRFTSSRDNAKNSVYLQMNSLKPEDTAVYYCNALQPGLGSPLGEYDYWGQGTQVTVSS", "polyreactivity (PSR sort gate)": "low polyreactivity"},
      {"sequence": "QVQLVESGGGIVQAGGSLRLSSAASGSTFYAYTMGWYRQAPGKERELVAAISSGGGTYYADSVKGRFTISRDNAKNTVYLQMNSLKPEDTAVYYCNADWRVGRQLSKAKIPYDYWGQGTQVTVSS", "polyreactivity (PSR sort gate)": "low polyreactivity"},
      {"sequence": "QVQLVESGGGIVQAGGSLRLSWAASGRIFYAYAMRWSRQAPGKERELVASLSGGGSTDYADSVKGRFTISRDNAKNTVVLQMNSLKPEDTAVYYCAAQYYLYRSRFDYWGQGTLVTVSS", "polyreactivity (PSR sort gate)": "high polyreactivity"},
      {"sequence": "QVQLVESGGGIVQAGGSLRVSCAASGRIFRRHNMGWYRQAPGKERELVAAITSSGGSTYADSVKGRFTISRDNAQNTVYLQMNSLKPEDTAVYYCATYVAYHRGYRTYDHWGQGTQVTVSS", "polyreactivity (PSR sort gate)": "low polyreactivity"},
      {"sequence": "QVQLVESGGGIVQAGGSLRVSFAASGLIFYRYAMGWYRQAPGKERELVAAISSAGSTYYADSVKGRFPISRDNAKNTVYLQMNSLKPEDTAVYYCAKKKLLSVPPRGYVYVYYWGQGTQVTVSS", "polyreactivity (PSR sort gate)": "high polyreactivity"},
      {"sequence": "QVQLVESGGGIVQAGRSLRLRCAASGFIFRYYTMGWYRQAPGKEREFVAAITSRGGSTYYSDSVKGRFTISRDNAKNTVYLQMNSLKPEDTAVYDCATTRWGYEYWGQGSQVTVSS", "polyreactivity (PSR sort gate)": "high polyreactivity"},
      {"sequence": "QVQLVESGGGIVQAGRSLRLSCAASGSIFDFNAMGWYRQAPGKERELVAAITWGGGSTYYAYSVKGRFTNSRDNEKNTVYLQIKSLKPEDTAVYYCNAAYGRYRYDYWGQGTQVTVSS", "polyreactivity (PSR sort gate)": "low polyreactivity"},
      {"sequence": "QVQLVESGGGIVQAGVSLRLSCAASGRTFWTNAMGWYRQAPGKERELVAVISTTTGNTYYADSVKGRFTISRDNAKNTVYLQMNSLKPEDTAVYYCNTRTGAFFLSKPYYYWGQGTQVTVSS", "polyreactivity (PSR sort gate)": "low polyreactivity"},
      {"sequence": "QVQLVESGGGIVQAGVSLRLSCAASGSTFESNAMGWYRQAPGKECELVASISGSGGSTFYADSVKGRFTISRDNAKNTVYLHMNSLKPEDTARYYCAAYKEPYYEESGYWGQVTQVTVSS", "polyreactivity (PSR sort gate)": "low polyreactivity"},
      {"sequence": "QVQLVESGGGIVQAGVSLRLSCAASGSTFVRYAMGWYRPAPGKERELVAAISGGGSTSYADSVKGRFTISRDNAKNTVYLQMNSLKPEDTAVYYCAAEKYRWENDAYQYYTFDYWGQGTQVTVSS", "polyreactivity (PSR sort gate)": "low polyreactivity"},
      {"sequence": "QVQLVESGGGKVQAGGSLRLSCAATGRNFGVYDMGSYRHSPGKERELVAAITARGGSTYYADSVKGRFTISRDNAKNTVYLQMNSLKPEDTAVYYCAASAGSAGHSGGYWGQGTQVTVSS", "polyreactivity (PSR sort gate)": "high polyreactivity"},
      {"sequence": "QVQLVESGGGLDQAGASLRLSCPASGRTFNANVMGWYRQAPGKERELVAAISTGGSTNYADSVKGRFTISRDNAKNTVYLQMNSLKPEDTAVYYCAAAIRVPQGGYYYWGQGTQVTVSS", "polyreactivity (PSR sort gate)": "low polyreactivity"},
      {"sequence": "QVQLVESGGGLDQAGGRLRLICAASGNTFRFYTLGWYRQAPGQETEFVAAINSSGRTNYADSVKGRFTISRDNATNTVYLQMNSLKPEDTAVYYCAADYYQRSTFLGVDEYDYWGQGTQVTVSS", "polyreactivity (PSR sort gate)": "low polyreactivity"},
      {"sequence": "QVQLVESGGGLDQAGGRLRLSCAASGSTFLLYAMGWYRQAPGKERELVAAIDTGDSTNYADSVKGRFTISRDNAKNTVYLQMNSLKREDTAVYYCNADSFPALNKRGYDYWGQGTQVTVSS", "polyreactivity (PSR sort gate)": "low polyreactivity"},
      {"sequence": "QVQLVESGGGLDQAGGSIRLSCAASGFIYDGNAMGSYRQAPGKERELVAAISSGGGTTYYADSVKGRFTISRDNAKNTVYLQMNSLKPEDTAVYYCADDALSDEYDYWGQGTQVTVSS", "polyreactivity (PSR sort gate)": "low polyreactivity"},
      {"sequence": "QVQLVESGGGLDQAGGSLLLSCAASGSIFRSNAMGWYRQAPRKERELVAAIDYSGTSTTYADSVKGRFSISRDNAKNTVYLQMNSLKPEDTAVYYCNADGYYRGYWSGYEYWGQGTQGTVSS", "polyreactivity (PSR sort gate)": "low polyreactivity"},
      {"sequence": "QVQLVESGGGLDQAGGSLLLSCPASGRTFGTYAMGLYRQAPGKERELVASITSGDSTNYADSVKGRFTISRDNAKYTVYLQMNSQKPEDTAVYYCNASGYVMVTPPKLSFNYEYWGQGTQVTVSS", "polyreactivity (PSR sort gate)": "low polyreactivity"}
    ]}
  ]
}
